Patent US20230295293A1 (published 2023)

Tests used:
Human FRα ECD-Avi-His [1] = molecular target: T1, Human FRα ECD-Avi-His (human, biotin on the Avi-tag (BirA) in the HTRF assays); assay: MOv19 HTRF epitope competition assay, geomean; IgG kept 2 weeks at 45°C; competitor MOv19
T1 construct: also called biotinylated human FRα; folate receptor alpha

Human FRα ECD-Avi-His [2] = molecular target: T1, Human FRα ECD-Avi-His; assay: HTRF epitope competition assay, geomean n>2; competitor DyLight 650 labelled Comparator Antibody 2
Method: (§1) HTRF assays were performed in 384-well white shallow well non-binding plates (Corning, 4513) in assay buffer containing phosphate-buffered saline (PBS) (Life Technologies, 14190), 0.100 v/v bovine serum albumin (BSA) (Sigma, A9576), and 0.4 M potassium fluoride (VWR International, 26820).
(§2) HTRF epitope competition assays were set up using a titration of test IgG, 1 nM streptavidin cryptate, biotinylated human FRα and DyLight 650 labelled IgG to assay volume of 10 μl. […] Assay plates were incubated for 3-4 h at room temperature prior to fluorescence measurement.

Cyno FRα ECD-Avi-His [3] = molecular target: T2, Cyno FRα ECD-Avi-His (cynomolgus monkey, biotin on the Avi-tag (BirA) in the HTRF assays); assay: SPR (Biacore T200)
T2 construct: Soluble region with C-terminal Avi and His tags
Method: (§3) Protein A was covalently immobilised to a CM5 chip surface using standard amine coupling techniques at a concentration of 50 μg/ml in 10 mM Sodium acetate, pH 4.0. The antibody was captured onto the Protein A surface in HBS-EP+ buffer, pH 7.4 at 10 μl/min to enable FRα ECD binding. The FRα ECD was serially diluted (0.4 nM-100 nM human FRα ECD; 0.8 nM-200 nM cyno FRα ECD; 30 nM-4000 nM mouse FRα ECD and rat FRα ECD) in HBS-EP+ buffer, pH 7.4 and flowed over the chip at 50 μl/min, with 2 minutes association and 8 minutes dissociation. The chip surface was fully regenerated with pulses of 3 M MgCl₂ to remove captured antibody together with any bound FRα ECD. Multiple buffer-only injections were made under the same conditions to allow for double reference subtraction of the final sensorgram sets, which were analysed using Biacore T200 Evaluation Software to derive equilibrium dissociation constants.

Human FRα ECD-Avi-His [4] = molecular target: T1, Human FRα ECD-Avi-His; assay: HTRF epitope competition assay, geomean n>2; competitor DyLight 650 labelled Comparator Antibody 3
Method: as §1, §2

Human FRα ECD-Avi-His [5] = molecular target: T1, Human FRα ECD-Avi-His; assay: MOv19 HTRF epitope competition assay, geomean; IgG kept 2 weeks at 4°C; competitor MOv19
Human FRα ECD-Avi-His [6] = molecular target: T1, Human FRα ECD-Avi-His; assay: SPR (Biacore T200, 25°C); antibody captured on Protein A, FRα ECD as analyte
Method: as §3

Cyno FRα ECD-Avi-His [7] = molecular target: T2, Cyno FRα ECD-Avi-His; assay: as above
Method: as §3

Human FRα ECD-Avi-His [8] = molecular target: T1, Human FRα ECD-Avi-His; assay: MOv19 HTRF epitope competition assay; accelerated stability study
Mouse FRα ECD-Avi-His = molecular target: T3, Mouse FRα ECD-Avi-His (mouse, biotin on the Avi-tag (BirA) in the HTRF assays); assay: HTRF antigen binding assay; hybridoma supernatant, 1 nM biotinylated antigen
T3 construct: Soluble region with C-terminal Avi and His tags
Method: as §1
(§4) Supernatants containing mouse IgG from hybridoma cells were incubated at a final assay dilution of 25% with 0.5 nM streptavidin-cryptate (CisBio, 610SAKLB), anti-mouse IgG AF647 (Jackson ImmunoResearch, 115-605-164) and 1 nM biotinylated human FRα, cyno FRα, mouse FRα, human FRβ or human FRγ to give a final assay volume of 10 μl, for 4 hours at room temperature before fluorescence was measured.

Human FRβ ECD-Avi-His = molecular target: T4, Human FRβ ECD-Avi-His (human, biotin on the Avi-tag (BirA) in the HTRF assays); assay: as above
T4 construct: Soluble region with C-terminal Avi and His tags; also called Human FRß
Method: as §1, §4

Human FRγ ECD-Avi-His = molecular target: T5, Human FRγ ECD-Avi-His (human, biotin on the Avi-tag (BirA) in the HTRF assays); assay: as above
T5 construct: Soluble region with C-terminal Avi and His tags
Method: as §1, §4

Human FRα ECD-Avi-His [9] = molecular target: T1, Human FRα ECD-Avi-His; assay: HTRF epitope competition assay, geomean n>2; competitor DyLight 650 labelled Comparator Antibody 1
Method: as §1, §2

T2 sequence (chain, as listed by the source limits assumed): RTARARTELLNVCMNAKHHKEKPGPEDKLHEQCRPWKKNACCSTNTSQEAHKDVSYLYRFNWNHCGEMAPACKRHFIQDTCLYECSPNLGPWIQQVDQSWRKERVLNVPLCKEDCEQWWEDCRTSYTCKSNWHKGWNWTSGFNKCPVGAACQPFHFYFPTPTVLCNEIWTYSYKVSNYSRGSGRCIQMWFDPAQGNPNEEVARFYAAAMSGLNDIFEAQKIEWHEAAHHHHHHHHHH
T3 sequence (chain, as listed by the source limits assumed): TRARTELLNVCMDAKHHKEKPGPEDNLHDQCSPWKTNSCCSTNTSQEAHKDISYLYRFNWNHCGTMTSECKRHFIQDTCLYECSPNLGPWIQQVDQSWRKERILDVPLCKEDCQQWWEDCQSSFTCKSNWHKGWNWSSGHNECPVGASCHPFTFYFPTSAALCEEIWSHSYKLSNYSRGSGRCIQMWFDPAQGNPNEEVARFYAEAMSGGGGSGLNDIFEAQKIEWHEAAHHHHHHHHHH
T4 sequence (chain, as listed by the source limits assumed): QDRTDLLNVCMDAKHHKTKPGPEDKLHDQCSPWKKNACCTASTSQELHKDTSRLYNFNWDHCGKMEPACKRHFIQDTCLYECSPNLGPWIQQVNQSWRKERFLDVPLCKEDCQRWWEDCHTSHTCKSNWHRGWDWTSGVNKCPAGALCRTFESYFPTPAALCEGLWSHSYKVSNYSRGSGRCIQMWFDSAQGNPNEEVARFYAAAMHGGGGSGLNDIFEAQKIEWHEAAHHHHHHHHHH
T1 sequence (chain, as listed by the source limits assumed): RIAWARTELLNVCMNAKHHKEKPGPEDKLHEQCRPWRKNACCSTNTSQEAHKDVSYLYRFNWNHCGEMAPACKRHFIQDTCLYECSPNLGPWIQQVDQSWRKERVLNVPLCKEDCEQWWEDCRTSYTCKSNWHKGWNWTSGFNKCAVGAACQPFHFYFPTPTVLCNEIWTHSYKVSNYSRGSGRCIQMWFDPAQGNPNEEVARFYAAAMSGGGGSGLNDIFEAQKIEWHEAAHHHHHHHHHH
T5 sequence (chain, as listed by the source limits assumed): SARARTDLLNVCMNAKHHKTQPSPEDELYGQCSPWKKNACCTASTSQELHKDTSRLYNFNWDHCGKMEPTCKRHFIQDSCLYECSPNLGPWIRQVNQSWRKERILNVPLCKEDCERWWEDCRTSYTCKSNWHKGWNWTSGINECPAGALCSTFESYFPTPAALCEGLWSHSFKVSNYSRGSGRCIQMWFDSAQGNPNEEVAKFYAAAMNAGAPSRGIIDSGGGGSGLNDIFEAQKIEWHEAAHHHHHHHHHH

| Binder | IC50 (Human FRα ECD-Avi-His [1]) | IC50 (Human FRα ECD-Avi-His [2]) | fold difference of affinity, cyno FRα against human FRα (Cyno FRα ECD-Avi-His [3]) | IC50 (Human FRα ECD-Avi-His [4]) | IC50 (Human FRα ECD-Avi-His [5]) | Kd (Human FRα ECD-Avi-His [6]) | koff (Human FRα ECD-Avi-His [6]) | kon (Human FRα ECD-Avi-His [6]) | Kd (Cyno FRα ECD-Avi-His [7]) | koff (Cyno FRα ECD-Avi-His [7]) | kon (Cyno FRα ECD-Avi-His [7]) | fold difference (IC50 45°C against 4°C) (Human FRα ECD-Avi-His [8]) | binding result (Mouse FRα ECD-Avi-His) | binding result (Human FRβ ECD-Avi-His) | binding result (Human FRγ ECD-Avi-His) | IC50 (Human FRα ECD-Avi-His [9]) |
| --- | --- | --- | --- | --- | --- | --- | --- | --- | --- | --- | --- | --- | --- | --- | --- | --- |
| AB1370035 hIgG1 (antibody, V domains shown) VH: QVQLQQSGPGLVKPSQTLSLTCAISGDSVSSNSAAWNWIRQSPSRGLEWLGRTYYRSNWYNDYTLSVKSRITVNPDTSKNQFSLQLNSVTPEDTAVYYCVRGVGRFDSWGQGTLVTVSS VL: DIQMTQSPSTLSASVGDRVIITCRASQSISSWLAWYQQKPGKAPKLLIYKASSLESGVPSRFSGSGSGTEFTLTITSLQPDDFASYYCQEYKTYSIFTFGPGTKVDIKR | 1.16 nM | 1.46 nM | ≤ 2.5 fold | 0.285 nM | 0.945 nM | 0.93 nM | 0.000527 s⁻¹ | 568000 M⁻¹ s⁻¹ | 1.1 nM | 0.000508 s⁻¹ | 475000 M⁻¹ s⁻¹ | 1.23 fold | – | – | – | – |
| AB1370049 (hybridoma IgG) (antibody, V domains shown, IgG from hybridoma of Del-1 humanised mouse, tested as supernatant ('mouse IgG', detected with anti-mouse IgG) or Phynexus purified) VH: LVQLQQSGPGLVKPSQTLSLTCAISGDSVSSDSATWNWIRQSPSRGLEWLGRTYYRSKWYNDYAVSVKSRITINPDTSKNQFSLQLNSVTPEDTAVYYCARGVGSFDYWGQGTLVTVSS VL: not shown | – | – | – | – | – | – | – | – | – | – | – | – | no binding | no binding | no binding | – |
| AB1370049 hIgG1 (antibody, V domains shown) VH: LVQLQQSGPGLVKPSQTLSLTCAISGDSVSSDSATWNWIRQSPSRGLEWLGRTYYRSKWYNDYAVSVKSRITINPDTSKNQFSLQLNSVTPEDTAVYYCARGVGSFDYWGQGTLVTVSS VL: not shown | – | – | – | – | – | – | – | – | 36.9 nM | – | – | – | – | – | – | – |
| AB1370035 (hybridoma IgG) (antibody, V domains shown, IgG from hybridoma of Del-1 humanised mouse, tested as supernatant ('mouse IgG', detected with anti-mouse IgG) or Phynexus purified) VH: QVQLQQSGPGLVKPSQTLSLTCAISGDSVSSNSAAWNWIRQSPSRGLEWLGRTYYRSNWYNDYTLSVKSRITVNPDTSKNQFSLQLNSVTPEDTAVYYCVRGVGRFDSWGQGTLVTVSS VL: DIQMTQSPSTLSASVGDRVIITCRASQSISSWLAWYQQKPGKAPKLLIYKASSLESGVPSRFSGSGSGTEFTLTITSLQPDDFASYYCQEYKTYSIFTFGPGTKVDIK | – | – | – | – | – | – | – | – | – | – | – | – | no binding | no binding | no binding | – |
| AB1370083 (hybridoma IgG) (antibody, V domains shown, IgG from hybridoma of Del-1 humanised mouse, tested as supernatant ('mouse IgG', detected with anti-mouse IgG) or Phynexus purified) VH: EVQLVESGGGLVKPGGSLRLSCAASGFTFSSYNMNWVRQAPGKGLEWVSSISSGSSYIYYADSMKGRFTISRDNAKNSLFLQMNSLRAEDTAVYYCARGMTTLTFDYWGQGTLVTVSS VL: DIQMTQSPSSLSASVGDRVTITCRASQGISTFLAWFQQKPGKAPKSLIYAASSLQSGVPSKFSGSGSETDFTLTISSLQPEDFATYYCQQYISYPLTFGGGTKVEIK | – | – | – | – | – | – | – | – | – | – | – | – | no binding | no binding | no binding | – |
| AB1370095 (hybridoma IgG) (antibody, V domains shown, IgG from hybridoma of Del-1 humanised mouse, tested as supernatant ('mouse IgG', detected with anti-mouse IgG) or Phynexus purified) VH: EVQLVESGGGLVKPGGSLRLSCAASGFTFSSYSMNWVRQAPGKGLEWVSSISSRSSYVYYADSVKGRFTISRDNAKNSLYLQMNSLRAEDTAVYYCARGMTTLTFDYWGQGTLVTVSS VL: DIQMTQSPSSLSASVGDRVTITCRASQGISSFLAWFQQKPGKAPKSLIYAASSLQSGVPSKFSGSGSGTDFTLTISSLQPEDFATYYCQQYNSYPLTFGGGTKVEIK | – | – | – | – | – | – | – | – | – | – | – | – | no binding | no binding | no binding | – |
| AB1370026 hIgG1 (antibody, V domains shown) VH: EVQLVESGGGLVKPGGSLRLSCAASGFTFSSYAMSWVRQAPGKGLEWVSSISSGRSYIYYADSVKGRFTISRDNAKNSLYLKMNSLRDEDTAVYYCAREMQQLALDYWGQGTLVTVSS VL: DIQMTQSPSSLSASVGDRVTITCRASQGISNFLAWFQQAPGKAPKSLIYAASSLQSGVPSKFSGSGSGTDFTLTISSLQPEDFATYYCQQYNSYPFTFGQGTKLEIKR | 0.708 nM | 0.177 nM | ≤ 2.5 fold | – | 0.711 nM | 1.3 nM | 0.000354 s⁻¹ | 279000 M⁻¹ s⁻¹ | 1.8 nM | 0.000342 s⁻¹ | 195000 M⁻¹ s⁻¹ | 1 fold | – | – | – | 0.032 nM |
| AB1370026 (hybridoma IgG) (antibody, V domains shown, IgG from hybridoma of Del-1 humanised mouse, tested as supernatant ('mouse IgG', detected with anti-mouse IgG) or Phynexus purified) VH: EVQLVESGGGLVKPGGSLRLSCAASGFTFSSYAMSWVRQAPGKGLEWVSSISSGRSYIYYADSVKGRFTISRDNAKNSLYLKMNSLRDEDTAVYYCAREMQQLALDYWGQGTLVTVSS VL: DIQMTQSPSSLSASVGDRVTITCRASQGISNFLAWFQQAPGKAPKSLIYAASSLQSGVPSKFSGSGSGTDFTLTISSLQPEDFATYYCQQYNSYPFTFGQGTKLEIK | – | – | – | – | – | – | – | – | – | – | – | – | no binding | no binding | no binding | – |
| AB1370083 hIgG1 (antibody, V domains shown) VH: EVQLVESGGGLVKPGGSLRLSCAASGFTFSSYNMNWVRQAPGKGLEWVSSISSGSSYIYYADSMKGRFTISRDNAKNSLFLQMNSLRAEDTAVYYCARGMTTLTFDYWGQGTLVTVSS VL: DIQMTQSPSSLSASVGDRVTITCRASQGISTFLAWFQQKPGKAPKSLIYAASSLQSGVPSKFSGSGSETDFTLTISSLQPEDFATYYCQQYISYPLTFGGGTKVEIKR | 0.0665 nM | 0.0806 nM | ≤ 2.5 fold | – | 0.0511 nM | 0.93 nM | 0.000135 s⁻¹ | 145000 M⁻¹ s⁻¹ | 1.56 nM | 0.00016 s⁻¹ | 101000 M⁻¹ s⁻¹ | 1.3 fold | – | – | – | 0.0296 nM |
| AB1370095 hIgG1 (antibody, V domains shown) VH: EVQLVESGGGLVKPGGSLRLSCAASGFTFSSYSMNWVRQAPGKGLEWVSSISSRSSYVYYADSVKGRFTISRDNAKNSLYLQMNSLRAEDTAVYYCARGMTTLTFDYWGQGTLVTVSS VL: DIQMTQSPSSLSASVGDRVTITCRASQGISSFLAWFQQKPGKAPKSLIYAASSLQSGVPSKFSGSGSGTDFTLTISSLQPEDFATYYCQQYNSYPLTFGGGTKVEIKR | 4.31 nM | 4.15 nM | ≤ 2.5 fold | – | 5.07 nM | 13.5 nM | 0.00129 s⁻¹ | 95700 M⁻¹ s⁻¹ | 19.1 nM | 0.00183 s⁻¹ | 95800 M⁻¹ s⁻¹ | 0.85 fold | – | – | – | 0.363 nM |
| AB1370117 hIgG1 (antibody, V domains shown) VH: QVQLQQSGPGLVKPSQTLSLTCAISGDSVSSDSATWNWIRQSPSRGLEWLGRTYYRSKWYSDYAVSVKSRITINPDTSKNQFSLQLNSVTPEDTAVYFCARGGAPFDYWGQGTLVTVSS VL: not shown | 5.48 nM | 9.33 nM | ≤ 2.5 fold | 1.83 nM | 3.75 nM | 2.6 nM | 0.000762 s⁻¹ | 293000 M⁻¹ s⁻¹ | 5.1 nM | 0.00187 s⁻¹ | 364000 M⁻¹ s⁻¹ | 1.46 fold | – | – | – | – |
| AB1370117 (hybridoma IgG) (antibody, V domains shown, IgG from hybridoma of Del-1 humanised mouse, tested as supernatant ('mouse IgG', detected with anti-mouse IgG) or Phynexus purified) VH: QVQLQQSGPGLVKPSQTLSLTCAISGDSVSSDSATWNWIRQSPSRGLEWLGRTYYRSKWYSDYAVSVKSRITINPDTSKNQFSLQLNSVTPEDTAVYFCARGGAPFDYWGQGTLVTVSS VL: not shown | – | – | – | – | – | – | – | – | – | – | – | – | no binding | no binding | no binding | – |
